In patent US20230242902A1, “A HIGHLY ERROR-PRONE […] R[…] FOR TARGETED CONTINUOUS EVOLUTION IN VIVO” (The Regents of the University of California, priority 2017, published 2023):
≈ marks a conversion by molar mass, not a printed value. Where “and” joins values, the source holds several entries; their conditions need not be identical. Equal values may be shown once.

What was measured:
[1] = Maximum soluble concentration in media; assay type: physicochemical; settings: yeast culture media, aqueous buffer
p1-encoded leu2* = assay: p1 leu2* fluctuation tests in AR-Y304 (p1 mutation rate reporter strain, mutual orthogonality); assay type: cell-based, S. cerevisiae; settings: AR-Y304, polymerase in trans
Description: Strains for testing mutual orthogonality were generated by transforming a panel of CEN6/ARS4 vectors encoding TP-DNAP1 or TP-DNAP2 variants into two base strains, AR-Y304 and GA-Y021. AR-Y304 (Ravikumar et al., 2014, Nature Chemical Biology, 10:175-177) contains recombinant p1 encoding mKate2, URA3 and leu2* without disturbing the native TP-DNAP1 ORF. Similarly, GA-Y021 encodes recombinant p2 that replaces ORF1 with mKate2, URA3 and leu2* without disturbing the native TP-DNAP2 ORF.
(§1) To precisely measure p1 and p2 per-base substitution mutation rates, several modifications were made to the small-scale protocol. First, 36 replicates were performed for reconfirmation of candidate TP-DNAP2 mutators, and 48 replicates for genomic and mutual orthogonality experiments. Titers were also determined for each strain after spot plating by pooling the residual volume from 4 replicates and plating dilutions on YPD. The expected number of LEU2 functional mutants (m) was determined by the Ma-Sandri-Sarkar maximum likelihood estimator (as calculated by the FALCOR tool and corrected for partial plating (Foster, 2006, Methods Enzymol, 409:195-213; Sarkar et al., 1992, Genetica, 85:173-179; Hall et al., 2009, Bioinformatics, 25:1564-1565). The mean mKate2 fluorescence was determined from 50,000 event counts on Attune™ NxT Flow Cytometer and converted to p2 copy number by using a calibration curve. To determine per-base substitution rates, the corrected m was normalized to the average cell titer, the p2 copy number, and the target size for functional leu2* reversion (2.33 bp). 95% confidence intervals were similarly scaled.
To test whether the replication mechanisms of p1 and p2 are mutually orthogonal in vivo, p1 and p2 mutation rates were measured in the presence of a panel of TP-DNAP1 and TP-DNAP2 variants with varying mutation rates. Changes in p1 or p2 mutation rate induced by TP-DNAP variants would therefore signal a degree of cross-replication between TP-DNAP1/p1 and TP-DNAP2/p2, if any. A panel of six polymerases was introduced on CEN6/ARS4 vectors into two separate base strains, AR-Y304 (p1 mutation rate reporter strain) and GA-Y021 (p2 mutation rate reporter strain), encoding mKate2, URA3, and leu2* on either p1 or p2, respectively. Included in this panel were TP-DNAP1^WT and two error-prone TP-DNAP1 variants found in previous screens: TP-DNAP1^1777K, L900S and TP-DNAP1^L477V, L640Y, I777K, W814N. Also included were TP-DNAP2^WT and the error-prone TP-DNAP2^S370Q and TP-DNAP2^Y424Q variants found in this work. In AR-Y304 and GA-Y021, both p1 and p2 still encode their native wt TP-DNAP's. Any contribution to replication by a third TP-DNAP encoded in trans is monitored by detecting changes in linear plasmid mutation rate. Importantly, these experiments afford each DNAP an opportunity to replicate its native plasmid and lose its attached TP, becoming “spent” and perhaps more likely to replicate its noncognate linear plasmid through DNAP exchange (Klassen and Meinhardt, 2007, Linear Protein-Primed Replicating Plasmids in Eukaryotic Microbes, in Microbial Linear Plasmids, pp 1 87-226. Springer, Berlin, Heidelberg). The presence of TP-DNAP1^WT or TP-DNAP2^WT in trans had no effect on their noncognate linear plasmids' mutation rate. […] Likewise, p1 mutation rate was unaltered in the presence of mutagenic TP-DNAP2^S370Q and TP-DNAP2^Y424Q, which increased p2 mutation rate by 29- and 16-fold, respectively (FIG. 9). Thus, TP-DNAP1 replicates p1 with at least 870-fold specificity over p2, while TP-DNAP2 targets p2 with at least 29-fold specificity over p1. The level of mutual orthogonality measured here is limited by the error-rates of DNAPs used, especially that of TP-DNAP2 variants.

p2-encoded leu2* = assay: p2 leu2* fluctuation tests in GA-Y021 (p2 mutation rate reporter strain); assay type: cell-based, S. cerevisiae; settings: GA-Y021, noncognate polymerase in trans, mutual orthogonality experiment
Description: For fluctuation tests used to measure p2 mutation rates, leu2* served as a marker for detecting mutational events. leu2* is a disabled version of LEU2, where Q180 is replaced with a TAA stop codon. Q180 is a permissive site where mutation to any other codon other than TAG and TGA results in functional reversion to LEU2. These mutational events can be detected by plating scores of parallel cultures on medium lacking leucine and counting the number distribution of functional LEU2 mutants.
For TP-DNAP2 library screening, each library member was subjected to small-scale leu2* fluctuation tests with six replicates. 190 library members from each yeast library transformation were arrayed and inoculated into liquid SC medium lacking uracil and histidine, and passaged three times at 1:10,000 dilutions. mKate2 fluorescence was measured at every passage on a microplate reader (TECAN Infinite® 200 PRO, settings: λex=588, λem=633) to track p2 copy number stabilization. To perform fluctuation tests, each library member was diluted 1:10,000 into liquid SC medium buffered to pH 5.8 and lacking uracil, histidine, tryptophan, and dilutions were split into six 100 μL replicates. Cultures were grown for 48 hours at 30° C. to reach saturation. Saturated cultures were washed with 200 μL 0.9% NaCl to remove residual leucine and resuspended in 35 μL of 0.9% NaCl. 10 μL of this resuspension was spot plated onto solid SC medium buffered to pH 5.8 and lacking uracil, histidine, tryptophan and leucine. Spot plates were allowed to dry and incubated at 30° C. Colonies were counted after 5 days. Colony counts were used to calculate the expected number of LEU2 functional mutants (m), using the p0 method (Foster, 2006, Methods Enzymol, 409:195-213).
as §1
To identify error-prone TP-DNAP2s, a small library of TP-DNAP2s diversified at locations hypothesized to be responsible for DNAP fidelity was screened. […] Four distinct site-saturation mutagenesis libraries were generated, each diversifying S370, Y424, L474, or F882 in TP-DNAP2 encoded on pGA55-reTP-DNAP2. Due to unsuccessful attempts to generate a strain with a full deletion of p2-encoded TP-DNAP2 and simultaneous integration of mKate, URA3, and leu2*, each library was transformed into GA-Y021 for convenient screening. However, since GA-Y021 still encodes wt TP-DNAP2 on p2-delORF1-mUL*, p2 mutation rates measured in this format are the result of in tandem replication of p2 by wt TP-DNAP2 and each TP-DNAP2 variant encoded in trans. 6-fold coverage of each library was maintained by picking 190 yeast colonies and passaging under selection for URA3 to stabilize the copy number of p2-delORF1-mUL* in the presence of the newly introduced TP-DNAP2 variants. […]

p1-encoded leu2 (Q180*) = assay: qPCR measurement of p1-encoded leu2 (Q180*) copy number; assay type: cell-based, S. cerevisiae; settings: qPCR-determined p1 copy number, OR-Y24 strains
Description: A calibration curve was established to correlate p1 copy number, determined via quantitative PCR (qPCR), with fluorescence of p1-encoded mKate2 (Table 1). Five TP-DNAP1 variants representing a wide range of copy numbers were transformed into ORY24 and passaged until w.t. p1 was displaced. The five OR-Y24 strains were grown to saturation, diluted 1:10,000 to mimic p1 fluctuation tests, and grown in triplicate 100 μL cultures and duplicate 40 mL cultures. 100 μL saturated cultures were subject to fluorescence measurement of mKate2 (ex/em=561 nm/620 nm, bandwidth=15 nm) on a flow cytometer (Invitrogen Attune NxT). Whole-cell DNA extracts were prepared from 40 mL cultures and used as templates for qPCR measurement of p1-encoded leu2 (Q180*), as described previously (Ravikumar et al., 2014). p1-encoded LEU2 was PCR amplified with qPCR-Leu2F and qPCR Leu2R; and genomic LEU3 was PCR amplified with qPCR-Leu3F and qPCR-Leu3R using SyBR Green (Fisher Scientific) master mix.

Row | Molecule | solubility [1] | fold increase of p1 mutation rate (p1-encoded leu2*) | change in p2 mutation rate by TP-DNAP1 (p2-encoded leu2*) | Average leu2 (Q180*) copy number per cell (p1-encoded leu2 (Q180*))
1 | CCc1nc(N)nc(N)c1-c1ccc(Cl)cc1 [pyrimethamine] | 3000 µM (≈ 746 µg/mL) | – | – | –
2 | I777K, L900S: TP-DNAP1 variant, encoded by SEQ ID NO:7 (protein, listed as Kluyveromyces lactis) MDYKDKALNDLRNVYADFDSLPLDFRQILIKDRATLLQKEDVEKKILERQEDAKKYAEYLKQSEIPERISLPNIKRHKGVSISFEETSEDMVLEPRPFIFDGLNIRCFRRETIFSLKNKILNMVKESSSFKNVSRQSVSFMYFKIFNKGKVIASTKSVNIYEDKIDERLEDLCNNFDDVLKKIIDVTYGYESLFVSETYSYVIFYAKSIYFPQPRCVNNWGNNIPNILTFDSFKLFTANKNNVSCIKQCSRFLWQKDFNTLEEMIEYKNGNICIVTPQLHINDVRDIKSFNDIRLYSESPIKTFSVIDNTITYLFYFKEHLGVIFNITKSRHDRRVTKFSPLSKFSDVKNITVCFDIESYFDPEKESNQVNIPFICCASIIYNKVIGNIVDFEGRDCVAQMIEYVVDICGELNISSVELIAHNGGGYDFHYILSSMYNPAAIKNILIRNNSFISFNFAHDGVKFSVKDSYSFLLCSLANASKAFLNEETFKKTDFPHHDLKTADDLYKVYKEWSSVNTEINHVVEKEKLLITSEHIVNFTKNDKSKTLIEWSKDYCRNDVLVLSKVWLEFKNAVEDIFNCELVDQTMTLAGLSYKLFQANMPFDVELRHPNKEDYFNMREALIGGRCISVNGIYKDVLCLDVKSLYPASMAFYDQPYGSFKRVSSRPKDELGIYYVRVTPNRNNKSNFFPIRSHNKITYNNFEESTYIAWYTNVDIDIGLSEGHNIEYIPFDSYGNIGYSWSKKGKIFEKYIKDVLYKLKIKYEKQNNKVKRNVIKKIMNSLWGKFAQKWVNFEYFIKSEDDIDFESEEAYKIWDTDFMLIKKIKESTYSSKPIQNGVFTLSWARYHMKSIWDAGAKEGAECIYSDTDSIFVHKEHFKKNAKFMLNGLKVPIIGSEVGQSELECEFDKLLCAGKKQYMGFYTYFQDGKPCIKEKKRFKGIPSNYIIPELYAHLLSGADKEAKIQFLKFRREWGSVKGYIENKTVKAT | – | 380 fold | no statistically significant change | 22.5 and 38.6
